In article PMC1669778 one finds stoichiometry N, Kd and binding signal data, which are given here for two molecules.

In data set [1] the target is C-terminal fragment of human topoisomerase I (HTOP14) (human) (UniProt P11387). Description: pull-down.
Data set [2] shares this target. Briefly: fluorescence polarisation.
Data set [3] concerns the target small subunit of L.donovani topoisomerase I (LdTOP1S) (Leishmania donovani). Briefly: fluorescence polarisation. Background: In fluorescence polarisation assays a small probe gives low polarisation when free and higher when bound to something large.
For another data set, the target named is LdTOP1L-fus-HTOP14 (Leishmania donovani / human chimera, UniProt A0A3Q8IHS4 1-635+=EF+P11387:636-765, internal_change). Briefly: SDS trapping of covalent complex.

On to “large subunit of L.donovani topoisomerase I (LdTOP1L) (natural protein)”, for which the stoichiometry N in data set [1] is 1. The equilibrium dissociation constant (Kd) amounted to 162 nM in data set [2] and 59.8 nM in data set [3].

B1: 25mer duplex ML25/MC25 (dsDNA)
DNA 1: GAAAAAAGACTTAGAAAAATTTTTA
DNA 2: TAAAAATTTTTCTAAGTCTTTTTTC
Consider B1, for which the binding signal in the data set with LdTOP1L-fus-HTOP14 was ~2 fold more covalent complex than LdTOP1L/S.

Broadly, the stoichiometry N is a count of units in the complex or per binding partner. Usually Kd stands for a measure of binding affinity in units of concentration.
